According to article PMC8366450, “Human CPPED1 belongs to calcineurin‐like metallophosphoesterase superfamily and dephosphorylates PI3K‐AKT pathway component PAK4” (Journal of Cellular and Molecular Medicine, 2021):

B1: Cell division cycle associated 3 (natural protein, human, UniProt Q99618 1-268, looked up)
chain: MGSAKSVPVTPARPPPHNKHLARVADPRSPSAGILRTPIQVESSPQPGLPAGEQLEGLKHAQDSDPRSPTLGIARTPMKTSSGDPPSPLVKQLSEVFETEDSKSNLPPEPVLPPEAPLSSELDLPLGTQLSVEEQMPPWNQTEFPSKQVFSKEEARQPTETPVASQSSDKPSRDPETPRSSGSMRNRWKPNSSKVLGRSPLTILQDDNSPGTLTLRQGKRPSPLSENVSELKEGAILGTGRLLKTGGRAWEQGQDHDKENQHFPLVES
notes: Cell division cycle associated 3, human, as on the HuProt v3.1 array; also called CDCA3; source: S. cerevisiae, purified (GST tag); on bought array: HuProt v3.1, Cambridge Protein Arrays
B2: Interferon-stimulated exonuclease gene 20 (enzyme)
chain: not shown
notes: Interferon-stimulated exonuclease gene 20, human, as on the HuProt v3.1 array; also called ISG20; source: S. cerevisiae, purified (GST tag); on bought array: HuProt v3.1, Cambridge Protein Arrays
B3: HIV-1 Tat interactive protein 2 (natural protein, human, UniProt Q9BUP3 1-242, looked up)
chain: MAETEALSKLREDFRMQNKSVFILGASGETGRVLLKEILEQGLFSKVTLIGRRKLTFDEEAYKNVNQEVVDFEKLDDYASAFQGHDVGFCCLGTTRGKAGAEGFVRVDRDYVLKSAELAKAGGCKHFNLLSSKGADKSSNFLYLQVKGEVEAKVEELKFDRYSVFRPGVLLCDRQESRPGEWLVRKFFGSLPDSWASGHSVPVVTVVRAMLNNVVRPRDKQMELLENKAIHDLGKAHGSLKP
notes: also called HTATIP2; source: S. cerevisiae, purified (GST tag); on bought array: HuProt v3.1, Cambridge Protein Arrays
B4: CRK proto-oncogene, adaptor protein (natural protein, human, UniProt P46108 1-304, looked up)
chain: MAGNFDSEERSSWYWGRLSRQEAVALLQGQRHGVFLVRDSSTSPGDYVLSVSENSRVSHYIINSSGPRPPVPPSPAQPPPGVSPSRLRIGDQEFDSLPALLEFYKIHYLDTTTLIEPVSRSRQGSGVILRQEEAEYVRALFDFNGNDEEDLPFKKGDILRIRDKPEEQWWNAEDSEGKRGMIPVPYVEKYRPASASVSALIGGNQEGSHPQPLGGPEPGPYAQPSVNTPLPNLQNGPIYARVIQKRVPNAYDKTALALEVGELVKVTKINVSGQWEGECNGKRGHFPFTHVRLLDQQNPDEDFS
notes: CRK proto-oncogene, adaptor protein, human, as on the HuProt v3.1 array; source: S. cerevisiae, purified (GST tag); on bought array: HuProt v3.1, Cambridge Protein Arrays

Molecular target: T1, human recombinant CPPED1 with N-terminal His-V5 dual tag (human, UniProt Q9BRF8 1-314)
T1 construct: Calcineurin-like phosphoesterase domain-containing protein 1 (CPPED1), human; cloned into PSF-OXB20-NH2-6HIS-V5-TEV; 38.9 kDa including the His-V5 dual tag; The vector name holds a TEV site; no cleavage is told; also called calcineurin-like phosphoesterase domain-containing protein 1; purified recombinant CPPED1; not shown: His6, N-terminal, kept; V5, N-terminal, kept
Assay: peptide or protein array; HuProt v3.1 human proteome microarray; >20 000 human recombinant proteins immobilised on the array; purified His-V5-CPPED1 applied
Conditions: both partners purified

Binding result, binds:
B1
B2
B3
B4
